Assay results: patent publication US20260207767A1 (ANAVEON, published 2026)

Legend:
[1] = target: T1, cynoPD-1 His (AcroBiosystems PD1-C5223) (cynomolgus monkey, UniProt B0LAJ3 25-170); experiment: SPR; second ka column, taken as cynoPD-1
T1 construct: also called cPD-1; cynomolgus PD-1 His-tagged
Procedure: (§1) Anti-human Fc IgG (Jackson) was immobilized on amine reactive CM5 chips (GE Healthcare) using 1×HBS-EP+ running buffer (GE Healthcare). The test antibodies were captured at flow rate 10 μl/min with 30 s contact time. […] Regeneration was carried out with 10 mM Glycine-HCl, pH 1.5 at flow rate 10 μL/min. This protocol is to be used, unless stated otherwise, in determination of Kd wherever used to define the KD of antibodies specified herein, with adaptions where necessary with regard to the nature of the interaction partners.
Every position in the antibody VH and VL-CDRs was mutated by PCR using a mutagenic primer containing a degenerate codon NNS at a specific CDR position, introducing a combination of all 20 amino acids. The library of single mutants was screened by scFv capture ELISA using a redundancy factor of 4 (on 96-well plate er position). Clones displaying ≥2× ELISA signal compared to the wild-type scFv were sequenced, and clones with unique sequences were re-grown, re-screened by capture ELISA and ranked by dose-dependent ELISA on human and cyno antigens, and by FACS using human antigen expressing cells. Affinity improving mutations were used to design a combinatorial library using the Kunkel method. The library was screened by scFv capture ELISA using the redundancy factor of 4 (4× number of combinations). Clones displaying ≥2× ELISA signal compared to the wild-type scFv were sequenced, and clones with unique sequences were re-grown, re-screened by capture ELISA and ranked by dose-dependent ELISA on human and cyno antigens, and by FACS using human antigen expressing cells.

[2] = target: T2, cynomolgus PD-1 expressed on cells (cynomolgus monkey, UniProt B0LAJ3 25-288); experiment: flow cytometry, CHO-S Cyno-PD-1
T2 construct: also called CHO-S Cyno-PD-1; 293:cyPD1

[3] = target: T3, hPD-1 Avi-Tag Biotin (AcroBiosystems PD1-H82E4) (human, UniProt Q15116 25-167, biotin on Avi-Tag); experiment: SPR, Ab captured, PD-1 analyte
T3 construct: bought; also called human PD-1
Procedure: as §1, with “partners. […]” for “partners.”

[4] = target: T4, human PD-1 expressed on cells (human, UniProt Q15116 25-288); experiment: flow cytometry, CHO-S hPD-1
T4 construct: whole, on cells; cell line named under assay; also called CHO-S hPD-1; Raji PD-1

[5] = target: T5, recombinant cynoPD-1 (construct not stated) (cynomolgus monkey, UniProt B0LAJ3 25-170); experiment: ELISA
T5 construct: not shown: probably His as elsewhere

[6] = target: T6, recombinant hPD-1 (construct not stated) (human, UniProt Q15116 25-167, limits assumed); experiment: ELISA
T6 construct: also called huPD-1; Human PD1

[7] = target: T7, IL-2R CD122-CD132 on Jurkat-PD1+CD122+ cells (UniProt P14784 27-551; P31785 23-369); experiment: cell-based or functional assay
T7 sequence (looked up) 1: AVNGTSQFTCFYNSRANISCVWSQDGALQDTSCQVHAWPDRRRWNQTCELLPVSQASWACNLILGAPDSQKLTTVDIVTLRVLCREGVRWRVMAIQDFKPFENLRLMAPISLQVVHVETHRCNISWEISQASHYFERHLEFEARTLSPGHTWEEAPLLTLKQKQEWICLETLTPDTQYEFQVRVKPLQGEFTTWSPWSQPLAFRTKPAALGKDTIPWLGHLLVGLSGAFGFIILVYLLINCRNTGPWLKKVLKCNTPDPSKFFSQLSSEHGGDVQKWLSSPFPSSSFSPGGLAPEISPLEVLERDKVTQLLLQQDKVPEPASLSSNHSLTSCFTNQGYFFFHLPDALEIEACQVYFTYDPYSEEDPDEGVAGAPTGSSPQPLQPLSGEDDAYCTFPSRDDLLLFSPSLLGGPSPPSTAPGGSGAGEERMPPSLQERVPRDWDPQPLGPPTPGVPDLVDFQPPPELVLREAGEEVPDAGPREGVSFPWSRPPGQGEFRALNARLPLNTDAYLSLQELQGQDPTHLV
T7 sequence (looked up) 2: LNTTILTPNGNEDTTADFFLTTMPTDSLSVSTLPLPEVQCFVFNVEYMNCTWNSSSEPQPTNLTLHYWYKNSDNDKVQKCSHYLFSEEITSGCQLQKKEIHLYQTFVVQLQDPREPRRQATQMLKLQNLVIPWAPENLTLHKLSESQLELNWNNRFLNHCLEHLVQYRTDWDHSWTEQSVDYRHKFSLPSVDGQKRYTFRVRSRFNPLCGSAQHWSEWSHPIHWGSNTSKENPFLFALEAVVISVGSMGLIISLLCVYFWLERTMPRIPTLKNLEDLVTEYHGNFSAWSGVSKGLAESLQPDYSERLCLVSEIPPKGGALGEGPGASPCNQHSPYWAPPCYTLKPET

[8] = target: T4, human PD-1 expressed on cells; experiment: cell-based or functional assay

T1 sequence (B0LAJ3 entry or part of it limits assumed): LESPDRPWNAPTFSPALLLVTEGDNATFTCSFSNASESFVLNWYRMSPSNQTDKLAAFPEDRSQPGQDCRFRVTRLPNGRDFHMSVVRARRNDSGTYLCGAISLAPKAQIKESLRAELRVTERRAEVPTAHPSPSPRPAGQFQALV
T4 sequence (Q15116 25-288): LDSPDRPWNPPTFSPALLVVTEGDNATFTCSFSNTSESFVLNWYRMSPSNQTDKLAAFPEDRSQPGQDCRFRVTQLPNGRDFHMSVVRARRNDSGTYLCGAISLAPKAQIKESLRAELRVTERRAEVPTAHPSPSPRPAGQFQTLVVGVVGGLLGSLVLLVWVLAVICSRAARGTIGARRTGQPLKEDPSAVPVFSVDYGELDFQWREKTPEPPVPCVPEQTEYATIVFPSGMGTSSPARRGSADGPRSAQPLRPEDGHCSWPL
T2 sequence (B0LAJ3 entry or part of it limits assumed): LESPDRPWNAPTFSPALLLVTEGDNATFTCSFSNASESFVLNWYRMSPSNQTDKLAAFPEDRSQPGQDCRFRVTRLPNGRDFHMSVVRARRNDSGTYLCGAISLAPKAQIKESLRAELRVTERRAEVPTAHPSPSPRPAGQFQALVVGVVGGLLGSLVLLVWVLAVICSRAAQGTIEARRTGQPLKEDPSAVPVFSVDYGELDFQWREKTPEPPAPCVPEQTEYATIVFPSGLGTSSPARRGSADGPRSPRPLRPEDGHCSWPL
T6 sequence (Q15116 25-167 limits assumed): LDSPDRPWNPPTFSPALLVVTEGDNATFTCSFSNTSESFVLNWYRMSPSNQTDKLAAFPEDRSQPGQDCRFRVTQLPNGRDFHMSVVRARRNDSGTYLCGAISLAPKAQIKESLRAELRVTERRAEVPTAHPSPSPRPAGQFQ
T3 sequence (Q15116 25-167 limits assumed): as above

B1: XVT458-z2-m1 (antibody, V domains shown)
VH: QVQLVQSGAEVKKPGASVKVSCKASGYTFTNFYIHWVRQAPGQGLEWMGSIYPNYGFTAYNQKFKDRVTMTVDTSTSTAYMELRSLRSDDTAVYYCARGYSYAMDYWGQGTTVTVSS
VL: DIQMTQSPSSVSASVGDRVTITCSASQGIWGDLNWYQQKPGKAPKLLIYHTSQLHSDVPSRFSGSGSGTDFTLTISSLQPEDFATYYCQGYSKDLLTFGGGTKLEIK
notes: IgG format; also called z2-XVT458-m1; z2_XVT458m1
kon [1]: 185000 M⁻¹ s⁻¹
Max MFI [2]: 70 MFI
Kd [3]: 0.148 nM
koff [3]: 3.28e-05 s⁻¹
kon [3]: 222000 M⁻¹ s⁻¹
EC50 [4]: 1.5 nM
Max MFI [4]: 41000 MFI
EC50 [5]: 0.087 nM
Max OD [5]: 3.58 OD
EC50 [6]: 0.083 nM
Max OD [6]: 3.39 OD

B2: XVT458-z2-m2 (antibody, V domains shown)
VH: QVQLVQSGAEVKKPGASVKVSCKASGYTFTNFYIHWVRQAPGQGLEWMGRIYPNYGFTAYNQKFKDRVTMTVDTSTSTAYMELRSLRSDDTAVYYCARGYSYAMDYWGQGTTVTVSS
VL: DIQMTQSPSSVSASVGDRVTITCSASQGIYGDLNWYQQKPGKAPKLLIYHTSSLHSGVPSRFSGSGSGTDFTLTISSLQPEDFATYYCQAYSKDLLTFGGGTKLEIK
notes: IgG format; also called z2_XVT458m2
kon [1]: 127000 M⁻¹ s⁻¹
Max MFI [2]: 367 MFI
Kd [3]: 1.24 nM
koff [3]: 0.00019 s⁻¹
kon [3]: 153000 M⁻¹ s⁻¹
EC50 [4]: 1.15 nM
Max MFI [4]: 42800 MFI
EC50 [5]: 0.086 nM
Max OD [5]: 3.56 OD
EC50 [6]: 0.076 nM
Max OD [6]: 3.34 OD

B3: XVT458-z2-m5 (antibody, V domains shown)
VH: QVQLVQSGAEVKKPGASVKVSCKASGYTFTNFYIHWVRQAPGQGLEWMGRIYPNYGITAYNQKFKDRVTMTVDTSTSTAYMELRSLRSDDTAVYYCARGYSYAMDYWGQGTTVTVSS
VL: DIQMTQSPSSVSASVGDRVTITCSASQGIYGDLNWYQQKPGKAPKLLIYHTSSRHSGVPSRFSGSGSGTDFTLTISSLQPEDFATYYCQAYSKDLLTFGGGTKLEIK
notes: IgG format; also called z2_XVT458m5
kon [1]: 111000 M⁻¹ s⁻¹
Max MFI [2]: 335 MFI
Kd [3]: 0.787 nM
koff [3]: 9.77e-05 s⁻¹
kon [3]: 124000 M⁻¹ s⁻¹
EC50 [4]: 0.84 nM
Max MFI [4]: 42400 MFI
EC50 [5]: 0.056 nM
Max OD [5]: 3.58 OD
EC50 [6]: 0.051 nM
Max OD [6]: 3.42 OD

B4: XVT458-z2-m4 (antibody, V domains shown)
VH: QVQLVQSGAEVKKPGASVKVSCKASGYTFTNFYIHWVRQAPGQGLEWMGRIYPNYGITAYNQKFKDRVTMTVDTSTSTAYMELRSLRSDDTAVYYCARGYSYAMDYWGQGTTVTVSS
VL: DIQMTQSPSSVSASVGDRVTITCSASQGISGDLNWYQQKPGKAPKLLIYHTSSRHSGVPSRFSGSGSGTDFTLTISSLQPEDFATYYCQGYSKDLLTFGGGTKLEIK
notes: IgG format; also called z2_XVT458m4
kon [1]: 134000 M⁻¹ s⁻¹
Max MFI [2]: 258 MFI
Kd [3]: 1.22 nM
koff [3]: 0.000173 s⁻¹
kon [3]: 142000 M⁻¹ s⁻¹
EC50 [4]: 0.96 nM
Max MFI [4]: 43400 MFI
EC50 [5]: 0.098 nM
Max OD [5]: 3.54 OD
EC50 [6]: 0.079 nM
Max OD [6]: 3.3 OD

B5: XVT458-z2-m3 (antibody, V domains shown)
VH: QVQLVQSGAEVKKPGASVKVSCKASGYTFTNFYIHWVRQAPGQGLEWMGRIYPNYGITAYNQKFKDRVTMTVDTSTSTAYMELRSLRSDDTAVYYCARGYSYAMDYWGQGTTVTVSS
VL: DIQMTQSPSSVSASVGDRVTITCSASQGISGDLNWYQQKPGKAPKLLIYHTSQRHSDVPSRFSGSGSGTDFTLTISSLQPEDFATYYCQGYSKDLLTFGGGTKLEIK
notes: IgG format; also called z2_XVT458m3
kon [1]: 138000 M⁻¹ s⁻¹
Max MFI [2]: 124 MFI
Kd [3]: 0.417 nM
koff [3]: 6.57e-05 s⁻¹
kon [3]: 158000 M⁻¹ s⁻¹
EC50 [4]: 1.34 nM
Max MFI [4]: 41100 MFI
EC50 [5]: 0.094 nM
Max OD [5]: 3.54 OD
EC50 [6]: 0.089 nM
Max OD [6]: 3.37 OD

B6: NZA596 (bispecific antibody, human IgG1, kappa, lambda, L234A L235A)
heavy 1: EVQLLESGGGLVQPGGSLRLSCAASGFTFSINAMTWVRQAPGKGLEWVSTISGSGFSTYYADSLKGRFTISRDNSKNTLYLQMNSLRAEDTAVYYCAKEVYGDYWGQGTLVTVSSASTKGPSVFPLAPSSKSTSGGTAALGCLVKDYFPEPVTVSWNSGALTSGVHTFPAVLQSSGLYSLSSVVTVPSSSLGTQTYICNVNHKPSNTKVDKRVEPKSCDKTHTCPPCPAPEAAGGPSVFLFPPKPKDTLMISRTPEVTCVVVDVSHEDPEVKFNWYVDGVEVHNAKTKPREEQYNSTYRVVSVLTVLHQDWLNGKEYKCKVSNKALAAPIEKTISKAKGQPREPQVCTLPPSREEMTKNQVSLSCAVKGFYPSDIAVEWESNGQPENNYKTTPPVLDSDGSFFLVSKLTVDKSRWQQGNVFSCSVMHEALHNHYTQKSLSLSPGK
light 1: not shown
heavy 2: EVQLVQSGAEVKKPGESLKISCKGSGYAFTNYLIEWVRQMPGKGLEWMGVINPGSGGTNYNEKFKGQVTISADKSISTAYLQWSSLKASDTAMYYCARWRGEGYYAYFDVWGQGTTVTVSSASTKGPSVFPLAPSSKSTSGGTAALGCLVKDYFPEPVTVSWNSGALTSGVHTFPAVLQSSGLYSLSSVVTVPSSSLGTQTYICNVNHKPSNTKVDKRVEPKSCDKTHTCPPCPAPEAAGGPSVFLFPPKPKDTLMISRTPEVTCVVVDVSHEDPEVKFNWYVDGVEVHNAKTKPREEQYNSTYRVVSVLTVLHQDWLNGKEYKCKVSNKALAAPIEKTISKAKGQPREPQVYTLPPCREEMTKNQVSLWCLVKGFYPSDIAVEWESNGQPENNYKTTPPVLDSDGSFFLYSKLTVDKSRWQQGNVFSCSVMHEALHNHYTQKSLSLSPGK
light 2: not shown
EC50 (read off the curve), % pSTAT5+ of CFSE+ cells pre-blocked with Nivolumab [panel CFSE+ cells] [7]: ~0.9 nM
EC50 (read off the curve), % pSTAT5+ of CFSE+ cells pre-blocked with Pembrolizumab [panel CFSE+ cells] [7]: ~0.9 nM
EC50 (read off the curve), % pSTAT5+ of CFSE+ cells; No blocking [panel CFSE+ cells] [7]: ~0.6 nM
EC50 (read off the curve), % pSTAT5+ of CTV+ cells; No blocking [panel CTV+ cells] [7]: ~0.5 nM
EC50 (read off the curve), % pSTAT5+ of CTV+ cells; mixed with CFSE+ cells pre-blocked with Nivolumab [panel CTV+ cells] [7]: ~0.6 nM
EC50 (read off the curve), % pSTAT5+ of CTV+ cells; mixed with CFSE+ cells pre-blocked with Parental mAb [panel CTV+ cells] [7]: ~0.6 nM
EC50 (read off the curve), % pSTAT5+ of CTV+ cells; mixed with CFSE+ cells pre-blocked with Pembrolizumab [panel CTV+ cells] [7]: ~0.6 nM
EC50 of NZA596, % pSTAT5+ Jurkat PD-1+CD122+ cells, pre-incubation with Medium [8]: 0.85 nM
EC50 of NZA596, pre-incubation with 21A08Ap1 [8]: 15.6 nM
EC50 of NZA596, pre-incubation with Cemiplimab [8]: 1.67 nM
EC50 of NZA596, pre-incubation with Cetrelimab [8]: 0.76 nM
EC50 of NZA596, pre-incubation with Dostarlimab (m102) [8]: 0.96 nM
EC50 of NZA596, pre-incubation with Ezabenlimab [8]: 1.71 nM
EC50 of NZA596, pre-incubation with Nivolumab [8]: 1.1 nM
EC50 of NZA596, pre-incubation with Pembrolizumab [8]: 1.02 nM
EC50 of NZA596, pre-incubation with Tislelizumab [8]: 1.47 nM
EC50 of NZA596, pre-incubation with Toripalimab [8]: 0.65 nM
EC50 of NZA596, pre-incubation with Zeluvalimab [8]: 0.88 nM
fold reduction in NZA596 Potency, pre-incubation with 21A08Ap1 [8]: 18.2 fold
fold reduction in NZA596 Potency, pre-incubation with Cemiplimab [8]: 1.95 fold
fold reduction in NZA596 Potency, pre-incubation with Cetrelimab [8]: 0.89 fold
fold reduction in NZA596 Potency, pre-incubation with Dostarlimab (m102) [8]: 1.12 fold
fold reduction in NZA596 Potency, pre-incubation with Ezabenlimab [8]: 2 fold
fold reduction in NZA596 Potency, pre-incubation with Nivolumab [8]: 1.28 fold
fold reduction in NZA596 Potency, pre-incubation with Pembrolizumab [8]: 1.2 fold
fold reduction in NZA596 Potency, pre-incubation with Tislelizumab [8]: 1.72 fold
fold reduction in NZA596 Potency, pre-incubation with Toripalimab [8]: 0.77 fold
fold reduction in NZA596 Potency, pre-incubation with Zeluvalimab [8]: 1.03 fold
